According to the supplement of paper PMC9876800:

Sequence of CAMK2D, construct: Full length (Q13557 whole entry, looked up): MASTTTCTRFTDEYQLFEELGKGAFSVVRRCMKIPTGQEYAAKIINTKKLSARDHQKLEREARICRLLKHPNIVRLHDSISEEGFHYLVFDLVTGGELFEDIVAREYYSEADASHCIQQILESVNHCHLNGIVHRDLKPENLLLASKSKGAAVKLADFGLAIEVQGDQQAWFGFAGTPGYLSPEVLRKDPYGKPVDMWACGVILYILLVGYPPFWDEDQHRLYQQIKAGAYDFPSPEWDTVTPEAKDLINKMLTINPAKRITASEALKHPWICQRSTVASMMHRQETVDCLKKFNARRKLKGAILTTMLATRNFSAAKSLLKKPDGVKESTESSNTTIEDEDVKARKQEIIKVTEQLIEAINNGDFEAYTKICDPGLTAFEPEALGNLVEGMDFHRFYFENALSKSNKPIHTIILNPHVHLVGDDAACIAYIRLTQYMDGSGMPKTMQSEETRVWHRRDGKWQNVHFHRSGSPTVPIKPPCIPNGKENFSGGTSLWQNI
Sequence of TSSK1B, construct: Full length (Q9BXA7 whole entry, looked up): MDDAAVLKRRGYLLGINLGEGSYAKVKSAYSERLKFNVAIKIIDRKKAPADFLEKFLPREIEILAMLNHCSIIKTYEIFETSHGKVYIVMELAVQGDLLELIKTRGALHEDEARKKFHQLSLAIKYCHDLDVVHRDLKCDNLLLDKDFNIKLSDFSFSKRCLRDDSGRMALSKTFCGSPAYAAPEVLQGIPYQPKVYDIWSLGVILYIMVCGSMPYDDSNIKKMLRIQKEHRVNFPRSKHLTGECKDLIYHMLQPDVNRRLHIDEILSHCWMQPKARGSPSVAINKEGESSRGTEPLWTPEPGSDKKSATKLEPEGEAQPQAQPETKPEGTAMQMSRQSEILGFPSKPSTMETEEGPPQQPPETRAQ
Sequence of CSNK1A1L, construct: Full length (Q8N752 whole entry, looked up): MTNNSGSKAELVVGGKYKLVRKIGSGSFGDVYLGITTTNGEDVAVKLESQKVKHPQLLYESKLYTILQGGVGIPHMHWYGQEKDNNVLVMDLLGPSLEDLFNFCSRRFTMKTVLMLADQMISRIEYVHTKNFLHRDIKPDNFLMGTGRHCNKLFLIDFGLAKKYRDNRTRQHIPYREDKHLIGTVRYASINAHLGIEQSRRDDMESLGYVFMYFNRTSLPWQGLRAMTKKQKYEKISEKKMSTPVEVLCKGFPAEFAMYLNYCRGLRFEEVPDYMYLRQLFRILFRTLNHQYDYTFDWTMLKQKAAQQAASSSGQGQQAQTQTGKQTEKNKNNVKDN
Sequence of CSNK1G3, construct: Full length (Q9Y6M4 whole entry, looked up): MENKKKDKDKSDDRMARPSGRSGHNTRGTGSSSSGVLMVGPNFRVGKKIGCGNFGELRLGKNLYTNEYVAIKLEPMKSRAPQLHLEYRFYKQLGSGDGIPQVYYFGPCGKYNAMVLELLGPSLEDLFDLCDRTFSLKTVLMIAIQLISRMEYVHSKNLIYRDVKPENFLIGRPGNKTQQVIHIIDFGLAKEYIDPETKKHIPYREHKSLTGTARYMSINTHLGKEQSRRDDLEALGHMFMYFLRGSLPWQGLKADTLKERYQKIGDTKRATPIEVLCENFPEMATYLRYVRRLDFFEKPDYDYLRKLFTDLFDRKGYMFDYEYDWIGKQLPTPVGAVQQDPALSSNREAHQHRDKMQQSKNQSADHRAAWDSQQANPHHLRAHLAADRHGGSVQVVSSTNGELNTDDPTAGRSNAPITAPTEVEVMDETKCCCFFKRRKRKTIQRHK
Sequence of ACVR1B, construct: aa150-end (P36896 150-505, looked up): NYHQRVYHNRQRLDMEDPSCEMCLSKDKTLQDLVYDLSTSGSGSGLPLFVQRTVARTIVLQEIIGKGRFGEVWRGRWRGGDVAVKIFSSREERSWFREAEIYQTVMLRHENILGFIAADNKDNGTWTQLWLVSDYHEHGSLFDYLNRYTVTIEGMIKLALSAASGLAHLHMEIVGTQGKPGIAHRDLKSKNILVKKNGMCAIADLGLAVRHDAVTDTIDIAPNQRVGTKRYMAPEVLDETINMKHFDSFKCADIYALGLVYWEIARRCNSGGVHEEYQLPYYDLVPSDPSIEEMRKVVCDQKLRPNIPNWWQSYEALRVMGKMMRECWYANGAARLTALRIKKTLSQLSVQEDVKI
Sequence of CIT, construct: aa1-449 (O14578 1-449, looked up): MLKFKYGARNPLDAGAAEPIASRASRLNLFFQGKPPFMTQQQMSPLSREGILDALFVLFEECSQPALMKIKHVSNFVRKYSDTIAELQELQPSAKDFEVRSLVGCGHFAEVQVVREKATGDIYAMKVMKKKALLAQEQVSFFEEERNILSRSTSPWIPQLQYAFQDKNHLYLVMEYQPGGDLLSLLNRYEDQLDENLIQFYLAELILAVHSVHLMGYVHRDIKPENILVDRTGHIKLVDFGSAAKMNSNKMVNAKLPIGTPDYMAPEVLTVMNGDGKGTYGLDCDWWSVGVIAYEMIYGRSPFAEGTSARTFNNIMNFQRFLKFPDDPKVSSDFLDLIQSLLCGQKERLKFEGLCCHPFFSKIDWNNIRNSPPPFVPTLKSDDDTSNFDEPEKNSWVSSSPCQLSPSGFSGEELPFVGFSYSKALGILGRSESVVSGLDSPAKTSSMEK
Sequence of PAK1, construct: aa150-end (Q13153 150-545, looked up): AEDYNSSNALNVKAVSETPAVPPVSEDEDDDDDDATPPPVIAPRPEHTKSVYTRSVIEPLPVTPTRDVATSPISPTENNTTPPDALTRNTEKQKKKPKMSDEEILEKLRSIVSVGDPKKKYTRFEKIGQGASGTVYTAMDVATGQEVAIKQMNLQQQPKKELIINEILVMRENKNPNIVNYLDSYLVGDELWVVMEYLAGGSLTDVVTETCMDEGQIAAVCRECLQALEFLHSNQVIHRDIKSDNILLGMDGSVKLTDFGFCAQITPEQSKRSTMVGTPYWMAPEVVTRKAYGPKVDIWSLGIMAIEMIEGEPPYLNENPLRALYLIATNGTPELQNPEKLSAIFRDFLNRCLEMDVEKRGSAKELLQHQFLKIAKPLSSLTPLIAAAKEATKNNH
Sequence of CDKL1, construct: aa2-304 (Q00532 2-304, looked up): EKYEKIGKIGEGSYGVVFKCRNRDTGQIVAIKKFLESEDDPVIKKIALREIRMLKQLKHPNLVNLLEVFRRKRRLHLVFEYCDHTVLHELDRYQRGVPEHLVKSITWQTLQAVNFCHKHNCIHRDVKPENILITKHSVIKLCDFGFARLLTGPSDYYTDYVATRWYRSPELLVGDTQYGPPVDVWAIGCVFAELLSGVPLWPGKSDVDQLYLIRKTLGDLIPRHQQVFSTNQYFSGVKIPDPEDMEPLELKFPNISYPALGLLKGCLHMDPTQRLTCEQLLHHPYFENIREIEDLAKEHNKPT

These substances were tested on peptide library, one residue held at a place counted from the S/T acceptor (assay: relative phosphorylation of the sub-library (ratio to the mean residue at this position); human; higher = residue favoured). Details: Y fixed; at -2.
Outline: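 Spots on streptavidin membranes were phosphorimaged and quantified by densitometry to measure phosphorylation of biotinylated degenerate peptide sub-libraries by purified recombinant kinases, human or orthologue constructs. The reactions ran in 384-well plates for 90 min under kinase-specific conditions, with peptides at 50 μM and 50 μM ATP spiked with γ-32P-ATP. Relative sub-library phosphorylation is the ratio to the mean residue at that position.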
“TSSK1B, construct: Full length (from UniProt Q9BXA7)” showed a relative phosphorylation of 0.623.
With “CSNK1A1L, construct: Full length (from UniProt Q8N752)” the relative phosphorylation was 0.737.
“CSNK1G3, construct: Full length (from UniProt Q9Y6M4)” gave a relative phosphorylation of 0.613.

Same assay, conditions: Y fixed; at -3
“CIT, construct: aa1-449 (from UniProt O14578)” showed a relative phosphorylation of 0.272.
Work on “PAK1, construct: aa150-end (from UniProt Q13153)” yielded a relative phosphorylation of 0.594.
“CAMK2D, construct: Full length (from UniProt Q13557)” was tested, and the relative phosphorylation was 0.844.
Substance “CDKL1, construct: aa2-304 (from UniProt Q00532)” has a relative phosphorylation of 0.55.
With “ACVR1B, construct: aa150-end (from UniProt P36896)” the relative phosphorylation was 0.995.
Work on “TSSK1B, construct: Full length (from UniProt Q9BXA7)” yielded a relative phosphorylation of 0.772.
“CSNK1A1L, construct: Full length (from UniProt Q8N752)” showed a relative phosphorylation of 1.09.
Substance “CSNK1G3, construct: Full length (from UniProt Q9Y6M4)” has a relative phosphorylation of 0.56.

Same assay, conditions: Y fixed; at -4
“CIT, construct: aa1-449 (from UniProt O14578)” was tested, and the relative phosphorylation was 0.598.
“PAK1, construct: aa150-end (from UniProt Q13153)” was tested, and the relative phosphorylation was 0.672.
For “CAMK2D, construct: Full length (from UniProt Q13557)”, the relative phosphorylation was 1.27.
In the case of “CDKL1, construct: aa2-304 (from UniProt Q00532)”, the relative phosphorylation is reported as 0.899.
“ACVR1B, construct: aa150-end (from UniProt P36896)” showed a relative phosphorylation of 0.998.
“TSSK1B, construct: Full length (from UniProt Q9BXA7)” was tested, and the relative phosphorylation was 0.805.
Work on “CSNK1A1L, construct: Full length (from UniProt Q8N752)” yielded a relative phosphorylation of 1.08.
For “CSNK1G3, construct: Full length (from UniProt Q9Y6M4)”, the relative phosphorylation was 1.1.

Same assay, conditions: Y fixed; at -5
For “CIT, construct: aa1-449 (from UniProt O14578)”, the relative phosphorylation was 0.707.
In the case of “PAK1, construct: aa150-end (from UniProt Q13153)”, the relative phosphorylation is reported as 0.762.
“CAMK2D, construct: Full length (from UniProt Q13557)” was tested, and the relative phosphorylation was 1.24.
With “CDKL1, construct: aa2-304 (from UniProt Q00532)” the relative phosphorylation was 1.06.
Work on “ACVR1B, construct: aa150-end (from UniProt P36896)” yielded a relative phosphorylation of 0.953.
With “TSSK1B, construct: Full length (from UniProt Q9BXA7)” the relative phosphorylation was 0.767.
Work on “CSNK1A1L, construct: Full length (from UniProt Q8N752)” yielded a relative phosphorylation of 1.25.
“CSNK1G3, construct: Full length (from UniProt Q9Y6M4)” showed a relative phosphorylation of 0.877.

Same assay, conditions: pThr fixed; at +1
“CIT, construct: aa1-449 (from UniProt O14578)” showed a relative phosphorylation of 0.466.
“PAK1, construct: aa150-end (from UniProt Q13153)” showed a relative phosphorylation of 0.668.
Work on “CAMK2D, construct: Full length (from UniProt Q13557)” yielded a relative phosphorylation of 1.02.
“CDKL1, construct: aa2-304 (from UniProt Q00532)” was tested, and the relative phosphorylation was 0.811.
With “ACVR1B, construct: aa150-end (from UniProt P36896)” the relative phosphorylation was 2.93.
“TSSK1B, construct: Full length (from UniProt Q9BXA7)” showed a relative phosphorylation of 0.709.
With “CSNK1A1L, construct: Full length (from UniProt Q8N752)” the relative phosphorylation was 1.69.
For “CSNK1G3, construct: Full length (from UniProt Q9Y6M4)”, the relative phosphorylation was 0.618.

Same assay, conditions: pThr fixed; at +2
In the case of “CIT, construct: aa1-449 (from UniProt O14578)”, the relative phosphorylation is reported as 0.609.
“PAK1, construct: aa150-end (from UniProt Q13153)” was tested, and the relative phosphorylation was 0.676.
Substance “CAMK2D, construct: Full length (from UniProt Q13557)” has a relative phosphorylation of 1.01.
With “CDKL1, construct: aa2-304 (from UniProt Q00532)” the relative phosphorylation was 0.892.
“ACVR1B, construct: aa150-end (from UniProt P36896)” was tested, and the relative phosphorylation was 1.06.
“TSSK1B, construct: Full length (from UniProt Q9BXA7)” showed a relative phosphorylation of 0.515.
“CSNK1A1L, construct: Full length (from UniProt Q8N752)” was tested, and the relative phosphorylation was 0.803.
Work on “CSNK1G3, construct: Full length (from UniProt Q9Y6M4)” yielded a relative phosphorylation of 0.558.

Same assay, conditions: pThr fixed; at +3
“CIT, construct: aa1-449 (from UniProt O14578)” gave a relative phosphorylation of 0.878.
In the case of “PAK1, construct: aa150-end (from UniProt Q13153)”, the relative phosphorylation is reported as 0.877.
Substance “CAMK2D, construct: Full length (from UniProt Q13557)” has a relative phosphorylation of 1.39.
With “CDKL1, construct: aa2-304 (from UniProt Q00532)” the relative phosphorylation was 0.844.
For “ACVR1B, construct: aa150-end (from UniProt P36896)”, the relative phosphorylation was 0.942.
In the case of “TSSK1B, construct: Full length (from UniProt Q9BXA7)”, the relative phosphorylation is reported as 0.365.
“CSNK1A1L, construct: Full length (from UniProt Q8N752)” showed a relative phosphorylation of 1.25.
Substance “CSNK1G3, construct: Full length (from UniProt Q9Y6M4)” has a relative phosphorylation of 1.52.

Same assay, conditions: pThr fixed; at +4
With “CIT, construct: aa1-449 (from UniProt O14578)” the relative phosphorylation was 1.12.
Substance “PAK1, construct: aa150-end (from UniProt Q13153)” has a relative phosphorylation of 1.4.
For “CAMK2D, construct: Full length (from UniProt Q13557)”, the relative phosphorylation was 2.4.
With “CDKL1, construct: aa2-304 (from UniProt Q00532)” the relative phosphorylation was 0.824.
Substance “ACVR1B, construct: aa150-end (from UniProt P36896)” has a relative phosphorylation of 1.36.
“TSSK1B, construct: Full length (from UniProt Q9BXA7)” showed a relative phosphorylation of 0.424.
“CSNK1A1L, construct: Full length (from UniProt Q8N752)” was tested, and the relative phosphorylation was 1.64.
“CSNK1G3, construct: Full length (from UniProt Q9Y6M4)” gave a relative phosphorylation of 2.55.

Same assay, conditions: pThr fixed; at -1
“CIT, construct: aa1-449 (from UniProt O14578)” was tested, and the relative phosphorylation was 0.349.
“PAK1, construct: aa150-end (from UniProt Q13153)” showed a relative phosphorylation of 0.439.
“CAMK2D, construct: Full length (from UniProt Q13557)” showed a relative phosphorylation of 0.353.
Substance “CDKL1, construct: aa2-304 (from UniProt Q00532)” has a relative phosphorylation of 0.778.
“ACVR1B, construct: aa150-end (from UniProt P36896)” showed a relative phosphorylation of 0.888.
With “TSSK1B, construct: Full length (from UniProt Q9BXA7)” the relative phosphorylation was 0.191.
“CSNK1A1L, construct: Full length (from UniProt Q8N752)” showed a relative phosphorylation of 2.06.
In the case of “CSNK1G3, construct: Full length (from UniProt Q9Y6M4)”, the relative phosphorylation is reported as 0.636.

Same assay, conditions: pThr fixed; at -2
In the case of “CIT, construct: aa1-449 (from UniProt O14578)”, the relative phosphorylation is reported as 0.323.
With “PAK1, construct: aa150-end (from UniProt Q13153)” the relative phosphorylation was 0.503.
“CAMK2D, construct: Full length (from UniProt Q13557)” was tested, and the relative phosphorylation was 0.348.
Substance “CDKL1, construct: aa2-304 (from UniProt Q00532)” has a relative phosphorylation of 0.799.
Work on “ACVR1B, construct: aa150-end (from UniProt P36896)” yielded a relative phosphorylation of 1.36.
“TSSK1B, construct: Full length (from UniProt Q9BXA7)” showed a relative phosphorylation of 0.303.
“CSNK1A1L, construct: Full length (from UniProt Q8N752)” gave a relative phosphorylation of 3.58.
“CSNK1G3, construct: Full length (from UniProt Q9Y6M4)” was tested, and the relative phosphorylation was 4.34.

Same assay, conditions: pThr fixed; at -3
With “CIT, construct: aa1-449 (from UniProt O14578)” the relative phosphorylation was 0.259.
Substance “PAK1, construct: aa150-end (from UniProt Q13153)” has a relative phosphorylation of 0.568.
For “CAMK2D, construct: Full length (from UniProt Q13557)”, the relative phosphorylation was 0.448.
For “CDKL1, construct: aa2-304 (from UniProt Q00532)”, the relative phosphorylation was 0.576.
With “ACVR1B, construct: aa150-end (from UniProt P36896)” the relative phosphorylation was 1.34.
In the case of “TSSK1B, construct: Full length (from UniProt Q9BXA7)”, the relative phosphorylation is reported as 0.574.
For “CSNK1A1L, construct: Full length (from UniProt Q8N752)”, the relative phosphorylation was 53.8.
“CSNK1G3, construct: Full length (from UniProt Q9Y6M4)” showed a relative phosphorylation of 144.

Same assay, conditions: pThr fixed; at -4
“CIT, construct: aa1-449 (from UniProt O14578)” gave a relative phosphorylation of 0.491.
“PAK1, construct: aa150-end (from UniProt Q13153)” gave a relative phosphorylation of 0.857.
